In patent publication US20230313180A1:
Read-outs that look alike come from different tables or passages of the source.

B1: (Nb142)2, homodimer of Nb1 (VHH72) with Tet3.0 at framework position Gly42, joined by the 2-headed sTCO (PEG)12 linker (VHH)
VHH: QVQLQESGGGLVQAGGSLRLSCAASGRTFSEYAMGWFRQAPGKEREFVATISWSGGSTYYTDSVKGRFTISRDNAKNTVYLQMNSLKPDDTAVYYCAAAGLGTVVSEWDYDYYLDYWGQGTQVTVSS
modifications: not checked
B2: (Nb1C)2, homodimer of Nb1 (VHH72) with Tet3.0 at the C-terminus, joined by the 2-headed sTCO (PEG)12 linker (VHH)
VHH: B1 VHH
modifications: not checked
B3: (Nb113)2, homodimer of Nb1 (VHH72) with Tet3.0 at framework position Gln13, joined by the 2-headed sTCO (PEG)12 linker (VHH)
VHH: B1 VHH
modifications: not checked
B4: (Nb1N)3, homotrimer of Nb1 (VHH72) with Tet3.0 at the N-terminal position, joined by the 3-armed Tri-sTCO PEG linker (VHH)
VHH: SGTGSQVQLQESGGGLVQAGGSLRLSCAASGRTFSEYAMGWFRQAPGKEREFVATISWSGGSTYYTDSVKGRFTISRDNAKNTVYLQMNSLKPDDTAVYYCAAAGLGTVVSEWDYDYYLDYWGQGTQVTVSS
modifications: not checked
B5: (Nb1N)2, homodimer of Nb1 (VHH72) with Tet3.0 at the N-terminal position, joined by the 2-headed sTCO (PEG)12 linker (VHH)
VHH: B4 VHH
modifications: not checked

Experiments:
[1] = target: SARS-CoV-2-RBD tagged with a C-terminal Fc tag (ACRO Biosystems) (SARS-CoV-2) (UniProt P0DTC2)
[2] = target: SARS-CoV-2-RBD tagged with a C-terminal Fc tag (ACRO Biosystems) (SARS-CoV-2) (UniProt P0DTC2); assay: BLI, immobilized SARS-CoV-2 RBD
[3] = target: T1, SARS-CoV-2-RBD tagged with a C-terminal Fc tag (ACRO Biosystems) (SARS-CoV-2), P0DTC2; assay: BLI, immobilized SARS-CoV-2 RBD; reference Nb1-Nb1 genetic dimer
[4] = target: T1, SARS-CoV-2-RBD tagged with a C-terminal …
[5] = target: T1, SARS-CoV-2-RBD tagged with a C-terminal …; remark: listed apart in the source
[6] = target: T1, SARS-CoV-2-RBD tagged with a C-terminal …; assay: BLI, immobilized SARS-CoV-2 RBD; reference (Nb1N)2

Molecule	fold tighter binding than Nb1-Nb1 [3] [fold]	Kd [4] [nM]	koff [4] [s⁻¹]	kon [4] [M⁻¹ s⁻¹]	other results
Nb1-Nb1, genetically linked "tail to head" dimer of Nb1 (VHH72)					Kd [1]: 89 nM; koff [1]: 0.00314 s⁻¹; kon [1]: 35400 M⁻¹ s⁻¹; Kd [2]: 88 nM
B1	3	27.5	0.00201	73100	
B2		132	0.0064	48100	fold weaker binding than Nb1-Nb1 [3]: 1.5 fold
B3		46	0.00156	33800	
B4					fold tighter KD than the genetic dimer Nb1-Nb1 [3]: 44 fold; Kd [5]: 2.31 nM; koff [5]: 0.000566 s⁻¹; kon [5]: 246000 M⁻¹ s⁻¹; fold larger kon than (Nb1N)2 [6]: 3 fold; fold smaller koff than (Nb1N)2 [6]: 2 fold; fold tighter KD than (Nb1N)2 [6]: 6 fold
B5	7	13.8	0.00119	85800	
